Results as given in article PMC11378909, “Thr^4 phosphorylation on RNA Pol II occurs at early transcription regulating 3′-end processing” (Science Advances, 2024).
Like-named read-outs stand apart in the source and are kept apart here. Values belong to the molecule of their own block, whether it stands above or below them. Where no end group is shown, it is not given here.

What was measured:
[1] = target: FITC-labeled pThr4 CTD peptide (16-mer, single phosphorylation at Thr4); assay: fluorescence anisotropy (FA); conditions: read at the highest protein concentration, 100 µM, read off a plot
[2] = target: FITC-labeled pSer2 CTD peptide (16-mer, single phosphorylation at Ser2); assay: fluorescence anisotropy (FA); conditions: read at the highest protein concentration, 100 µM, read off a plot
[3] = target: FITC-labeled pThr4 CTD peptide (16-mer, single phosphorylation at Thr4); assay: fluorescence polarisation; CID protein titrated into 10 nM FITC-peptide; 50 mM Tris (pH 8.0), 300 mM NaCl, 10 mM BME; room temperature; triplicate; total binding model
[4] = target: FITC-labeled pSer2 CTD peptide (16-mer, single phosphorylation at Ser2); assay: as above
pThr^4 (6D7) antibody = assay: Dot blot of pThr^4 CTD peptide after kinase treatment; format: biochemical; conditions: pThr^4 CTD peptide (18-mer), 10 μg or 5 μg, kinase-treated vs no-kinase control (fig. S1C)
Source text: Another reported Thr^4 antibody masking effect in vitro is observed when Ser^2, two residues upstream of pThr^4, is phosphorylated (pSer^2Pro^3pThr^4Ser^5). Despite the in vitro blocking effect, this potential impediment posed to pThr^4 identification is less concerning under physiological conditions as pSer^2/pThr^4 double phosphorylation is rather rare in cells ([19]). Subsequent biochemical and cellular experiments have shown that, although Ser^2 and Thr^4 phosphorylations occur around the same time during transcription cycle, they tend to occur on different heptads because kinases avoid placing a phosphate on the neighboring Ser^2 when Thr^4 is phosphorylated and vice versa ([19]). […]
Another phosphorylation mark co-occurring with Thr^4 on the same heptad is Tyr1 (accounts for ~5% of doubly phosphorylated heptads) ([19]). […] To corroborate this, we evaluated the possibility that Tyr1 phosphorylation affects pThr^4 detection by treating pThr^4-containing CTD peptide with the Tyr1 kinase, c-Abl (fig. S1B). […]
Serial dilutions of pThr^4 CTD peptide or Dyrk1a/Abl1 kinase-treated pThr^4 CTD peptide were spotted on an activated nitrocellulose membrane. […] The membrane was washed three times and visualized on a LI-COR Odyssey CLx image reader. […]

[5] = target: FITC-labeled pThr4 CTD peptide (16-mer, single phosphorylation at Thr4); assay: fluorescence polarisation; CID protein titrated into 10 nM FITC-peptide; 50 mM Tris (pH 8.0), 300 mM NaCl, 10 mM BME; room temperature; triplicate; total binding model; remark: listed apart in the source
[6] = target: FITC-labeled pSer2 CTD peptide (16-mer, single phosphorylation at Ser2); assay: as above; remark: listed apart in the source
[7] = target: T1, RNA Pol II CTD peptide CTD peptide (Homo sapiens, UniProt P24928, not fully specified (residue 2); also: pSer2 (heptad position 2, which repeat(s) not given here)); assay: fluorescence anisotropy
T1 chain: YSPTSPSYSPTSPS

[8] = target: T2, RNA Pol II CTD peptide CTD peptide (Homo sapiens, UniProt P24928, not fully specified (residue 4); also: pThr4 (heptad position 4, which repeat(s) not given here)); assay: fluorescence anisotropy
T2 chain: YSPTSPSYSPTSPS

[9] = system: pSer^2 Pol II in HEK293 nuclear extract; assay: Western blot, pSer^2 recognition in HEK293 nuclear extract treated with phosphatase; format: biochemical, human; conditions: HEK293 nuclear extract treated with Ssu72, antibody 3E10; vs untreated and inactive Ssu72 mutant
RNA Pol II CTD = conditions: cited from earlier work
Source text: The reported enrichment of pThr^4pSer^5 double phosphorylation in cells raised concerns for Thr^4 phosphorylation detection as the masking effect by adjacent phosphorylation may block pThr^4 recognition leading to false-negative results ([19]). To address this issue, we explored the possibility of eliminating the masking effect on pThr^4 antibody recognition by selectively removing the interfering phosphate groups on Ser^5 of the CTD. Our prior biochemical and structural analyses have established phosphatase Ssu72 as a highly specific phosphatase for Ser^5 of the CTD, distinguishing Ser^5 from ...

response ([1]; pThr4 CTD peptide, parent: est. 120): 16 mP | response ([2]; pSer2 CTD peptide, parent: est. 180): 16 mP
Molecule: RPRD2-CID (residues 19 to 149) (from UniProt Q5VT52) R122A

Kd [3]: 6.6 µM | Kd [4]: 8.7 µM
Molecule: RPRD2-CID (residues 19 to 149) (from UniProt Q5VT52 19-149) (domain or fragment)

response ([1]; pThr4 CTD peptide, parent: est. 77): 15 mP | response ([2]; pSer2 CTD peptide, parent: est. 170): 17 mP
Molecule: SCAF4-CID (residues 1 to 139) (from UniProt O95104) R112A

response ([1]; FITC-labeled pThr4 CTD peptide, parent: est. 150): 8 mP | response ([2]; FITC-labeled pSer2 CTD peptide, parent: est. 170): 8 mP
Molecule: RPRD1B-CID (residues 2 to 133) (from UniProt Q9NQG5) R106A

response ([1]; pThr4 CTD peptide, parent: est. 87): 25 mP | response ([2]; pSer2 CTD peptide, parent: est. 110): 17 mP
Molecule: RPRD1A-CID (residues 2 to 133) (from UniProt Q96P16) R106A

Molecule: c-Abl: Tyr1 kinase
effect of kinase treatment on pThr^4 antibody detection (pThr^4 (6D7) antibody): does not affect pThr^4 antibody recognition

Kd [5]: 5.3 µM | Kd [6]: 22.8 µM
B1: RPRD1B-CID (residues 2 to 133) (domain or fragment)
chain: SSFSESALEKKLSELSNSQQSVQTLSLWLIHHRKHAGPIVSVWHRELRKAKSNRKLTFLYLANDVIQNSKRKGPEFTREFESVLVDAFSHVAREADEGCKKPLERLLNIWQERSVYGGEFIQQLKLSMEDSK

Kd [7]: 10.7 µM | Kd [8]: 3.9 µM
B2: CHERP CID (protein)
chain: LLEETQLDMNEFDNLLQPIIDTCTKDAISAGKNWMFSNAKSPPHCELMAGHLRNRITADGAHFELRLHLIYLINDVLHHCQRKQARELLAALQKVVVPIYCTSFLAVEEDKQQKIARLLQLWEKNGYFDDSIIQQLQSPALGLGQYQ

Kd [5]: 8.1 µM | Kd [6]: 6.7 µM
B3: SCAF4-CID (residues 1 to 139) (domain or fragment)
chain: MDAVNAFNQELFSLMDMKPPISRAKMILITKAAIKAIKLYKHVVQIVEKFIKKCKPEYKVPGLYVIDSIVRQSRHQFGTDKDVFGPRFSKNITATFQYLYLCPSEDKSKIVRVLNLWQKNGVFKIEIIQPLLDMAAGTS

B4: Ssu72: phosphatase highly specific for Ser^5 of the CTD (protein)
chain: MTDPSKLAVAVVCSSNMNRSMEAHNFLAKKGFNVRSYGTGERVKLPGMAFDKPNVYEFGTKYEDIYRDLESKDKEFYTQNGLLHMLDRNRRIKKCPERFQDTKEQFDIIVTVEERVYDLVVMHMESMESVDNRPVHVLNVDVVDNAEDALMGAFVITDMINMMAKSTDLDNDIDELIQEFEERRKRVILHSVLFY
modifications: left off: 6xHis, end not stated, state not stated | SUMO, end not stated, state not stated
pSer^2 signal recognition [9]: no significant difference | effect on Ser^5 phosphorylation on the CTD (RNA Pol II CTD; MS and biochemical assays): effectively eradicating Ser^5 phosphorylation | effect on levels of pSer^2 or pThr^4 (RNA Pol II CTD; MS and biochemical assays): no effect | activity against pSer^7 relative to pSer^5 (RNA Pol II CTD): about three magnitudes lower

Kd [5]: 12.3 µM | Kd [6]: 13.8 µM
B5: RPRD1A-CID (residues 2 to 133) (domain or fragment)
chain: SAFSEAALEKKLSELSNSQQSVQTLSLWLIHHRKHSRPIVTVWERELRKAKPNRKLTFLYLANDVIQNSKRKGPEFTKDFAPVIVEAFKHVSSETDESCKKHLGRVLSIWEERSVYENDVLEQLKQALYGDK
